According to publication PMC3173608 (Structure(London, England:1993), 2011):

Biological target: the molecule itself
Test: SEC

B1: CsgG_(16-277) (domain or fragment)
chain: CLTAPPKEAARPTLMPRAQSYKDLTHLPAPTGKIFVSVYNIQDETGQFKPYPASNFSTAVPQSATAMLVTALKDSRWFIPLERQGLQNLLNERKIIRAAQENGTVAINNRIPLQSLTAANIMVEGSIIGYESNVKSGGVGARYFGIGADTQYQLDQIAVNLRVVNVSTGEILSSVNTSKTILSYEVQAGVFRFIDYQRLLEGEVGYTSNEPVMLCLMSAIETGVIFLINDGIDRGLWDLQNKAERQNDILVKYRHMSVPPES
**Q.** How did the “stoichiometry N” value turn out when B1 was run?
**A.** 8 protomers
